Assay results reported in patent US20030134779A1, “Method and composition for treatment and/or prevention of antibiotic-resistant microorganism infections” (priority 2002, published 2003).

Tests used:
Format in all cases: cell-based, Staphylococcus aureus
[1] = tested on: β-lactamase (BlaZ) gene expression in S. aureus strain SHY97-4320; experiment: BlaZ gene expression, real-time quantitative RT-PCR, and total RNA
Protocol: Fresh MHB containing or not 8 μg/ml of penicillin G and/or 1 mg/ml of bovine LF (2×2 factorial design) was adjusted to an optical density at 540 nm of 0.04 with an overnight culture of S. aureus and then incubated at 37° C. with agitation (150 rpm). After 4 and 22-h of incubation, aliquots were removed to determine bacterial growth by viable count (colony forming unit per ml, cfu/ml), measuring the culture turbidity (OD540nm) with a spectrophotometer Philips PU and to measure β-lactamase activity in bacterial cells. Following culture under the same condition, bacterial cells were collected for RNA extraction.
Total bacterial RNA was prepared using the RNeasy minikit (Qiagen, Mississauga, ON, Canada). Washed bacteria were first treated with 50 μg/ml of lysostaphin (GramCracker, Ambion, Austin, Tex.) for 10 min at 37° C. and RNA was purified according to the manufacturer's protocol. Contaminating DNA was removed from total RNA by using 1 U of Rnase-free Dnase I (Gibco Life Technologies, Grand Island, N.Y.) in a 10 μl reaction mixture containing approximately 50 ng of total RNA per μl and 20mM Tris-HCl (pH 8.4), 2 mM MgCl2 and 50 mM KCl. The reaction mixture was incubated for 15 min at room temperature, and the Dnase I was inactivated by adding 1 μl of 25 mM EDTA to the mixture and incubating for 10 min at 65° C. before assessing quantity and purity. Amount of cellular RNA was then determined by measuring the OD260 nm and OD280 nm.
Real-Time fluorescence-based 5′ nuclease PCR which is a widely accepted method for measuring gene expression levels was used to quantify β-lactamase BlaZ RNA by RT-PCR on ABI Prism™ 7700 (TaqMan® ) sequence detector (PE Applied Biosystem, Foster City, Calif.). The forward primer, reverse.primer, and TaqMan probe for Real-Time RT-PCR amplification were designed with the PrimerExpress software (PE Applied Biosystem) to specifically amplify the. S. aureus BLAZ gene. Briefly, RNA (50 ng) was added to a 50 μl reaction mixture containing 25 μl of 2×RT-PCR One-Step Universal Master Mix, 1.25 μl of 40×MultiScribe and Rnase Inhibitor Mix, 4.5 μl of the forward primer (10 μM, 5′-[…]-3′, SEQ ID NO:3), 4.5 μl of the reverse primer (10 μM, 5′-[…]-3′, SEQ ID NO:4), and 1.25 μl of TaqMan probe (10 μM, 6FAM-[…]-TAMRA, SEQ ID NO:5). Reverse transcription with the recombinant Moloney Murine Leukemia Virus (M-MuLV) Reverse Transcriptase (0.25 U/μl) was conducted at 48° C. for 30 min. After initial activation of AmpliTaq Gold DNA polymerase (1.25 U/μl) at 95° C. for 10 min, 40 PCR cycles of 95° C. for 15 s and 60° C. for 1 min were performed. The cycle threshold value (CT), indicative of the quantity of target gene at which the fluorescence exceeds a pre-set threshold, was determined and compared to the CT of a standard curve containing known amounts of mRNA (1.1×10^2 to 1.1×10^9) from the BLAZ gene of S. aureus obtained by in vitro transcription. Statistical analysis were done on the LOG 10 of number of copies.

S. aureus SHY97-3906 = experiment: Checkerboard MICs and FIC index, penicillin with bovine LF
Protocol: (§1) The MICs were determined by both macrodilution (1 ml/tube) and microdilution (100 μl/well) in sterile 96 well microtiter plates (International Nunc, Napierville, Ill.) techniques in three separate experiments according to the National Committee for Clinical Laboratory Standards (1992 and 1999) in three separate experiments. Serial 2-fold dilutions in MHB of LF, LFC, antibiotic or combination of LF or LFC with antibiotic were inoculated with an overnight culture at a final inoculum of 10^6 cfu/ml in MHB. Effect of LF combination with antibiotic on MICs were determined by adding 0.5 mg or 1 mg/ml of LF to each antibiotic dilution. The MIC was defined as the lowest concentration of drug (highest dilution) that caused a complete inhibition of bacterial growth after an incubation of 18 h. Effect of LF or LFC combination with antibiotic on MIC was also determined by checkerboard method using 96 well microtiter plates. Each antibiotic dilution (50 μl) was serially added to the wells in vertical rows starting from the top (lower dilution) to the bottom. Lactoferrin or LFC (50 μl) were added to 50 μl of each antibiotic dilution and serially diluted starting at the left (lower dilution) to the right. After inoculation, the final concentration of antibiotic from top to bottom were 32 to 8, 2 to 0.5, 0.5 to 0.125 μg/ml for penicillin, cefazolin and neomycin, respectively. From left to right, the concentration of LF or LFC were 25 to 0.0244 mg/ml or 256 to 0.5 μg/ml respectively in a final volume of 100 μl/well. The microplate's were incubated at 37° C. for 24 h. Bacterial growth was measured optically at 540 nm using Spectra Max 250 Microplate Spectrophotometer System of Molecular Device (Fisher Scientific, Ottawa, Canada). Tubes were incubated at 37° C. for 18 h and bacterial growth was measured by visual examination and optically at 540 nm using a spectrophotometer (Philips PU 8800; Pye Unican Ltd, Cambridge, UK). The fractional inhibitory concentration (FIC) was calculated as described by Eliopoulos and Moellering (1991).
(§2) FIC antibiotic A=MICantibiotic A (in the presence of antibiotic B)/MICantibiotic A alone. FIC Index=FICantibiotic A+FICantibiotic B
(§3) The effects of the antibiotics were considered to be synergistic or indifferent when FIC Index was<1 or>1, respectively.

S. aureus ATCC 25923 = experiment: as above
Protocol: as §1, §2, §3

S. aureus PC-1 = experiment: as above
Protocol: as §1, §2, §3

S. aureus SHY97-4320 = experiment: as above
Protocol: as §1, §2, §3

[2] = in combination with penicillin, checkerboard

B1: LF: bovine lactoferrin, 80-kDa iron-binding glycoprotein found in milk (protein, UniProt P24627 20-708, looked up)
Lactotransferrin: APRKNVRWCTISQPEWFKCRRWQWRMKKLGAPSITCVRRAFALECIRAIAEKKADAVTLDGGMVFEAGRDPYKLRPVAAEIYGTKESPQTHYYAVAVVKKGSNFQLDQLQGRKSCHTGLGRSAGWIIPMGILRPYLSWTESLEPLQGAVAKFFSASCVPCIDRQAYPNLCQLCKGEGENQCACSSREPYFGYSGAFKCLQDGAGDVAFVKETTVFENLPEKADRDQYELLCLNNSRAPVDAFKECHLAQVPSHAVVARSVDGKEDLIWKLLSKAQEKFGKNKSRSFQLFGSPPGQRDLLFKDSALGFLRIPSKVDSALYLGSRYLTTLKNLRETAEEVKARYTRVVWCAVGPEEQKKCQQWSQQSGQNVTCATASTTDDCIVLVLKGEADALNLDGGYIYTAGKCGLVPVLAENRKSSKHSSLDCVLRPTEGYLAVAVVKKANEGLTWNSLKDKKSCHTAVDRTAGWNIPMGLIVNQTGSCAFDEFFSQSCAPGADPKSRLCALCAGDDQGLDKCVPNSKEKYYGYTGAFRCLAEDVGDVAFVKNDTVWENTNGESTADWAKNLNREDFRLLCLDGTRKPVTEAQSCHLAVAPNHAVVSRSDRAAHVKQVLLHQQALFGKNGKNCPDKFCLFKSETKNLLFNDNTECLAKLGGRPTYEEYLGTEYVTAIANLKKCSTSPLLEACAFLTR
BlaZ total: total number of copies of BlaZ gene mRNA/ml of culture ([1]; LF 1 mg/ml and/or penicillin G): 5.6 × 10^5 copies/ml of culture | BlaZ: number of copies of BlaZ gene mRNA/50 ng of mRNA ([1]; LF 1 mg/ml and/or penicillin G): 1.4 × 10^4 copies/50 ng of mRNA | reduction of the mRNA level in bacteria ([1]; LF, P<0.001): 35% | RNA ([1]; adjusted for an OD540nm of 1.0, LF 1 mg/ml and/or penicillin G): 1.88 ± 0.68 :g/ml | penicillin G-induced increase of BlaZ mRNA ([1]; simultaneous addition of 1 mg/ml of LF): completely prevented | Decrease (of MIC of LF) (S. aureus SHY97-3906; by combination with penicillin): 16 fold | MIC LF (S. aureus SHY97-3906; [2]): 1560 µg/mL | Decrease (of MIC of LF) (S. aureus ATCC 25923; by combination with penicillin): 32 fold | MIC LF (S. aureus ATCC 25923; [2]): 780 µg/mL | Decrease (of MIC of LF) (S. aureus PC-1; by combination with penicillin): 64 fold | MIC LF (S. aureus PC-1; [2]): 390 µg/mL | Decrease (of MIC of LF) (S. aureus SHY97-4320; by combination with penicillin): 64 fold | MIC LF (S. aureus SHY97-4320; [2]): 390 µg/mL
